Experimental data: patent US20220324988A1

Target: human CD40 expressed on cells (human) (UniProt P25942)
Assay: cell-based or functional assay

human CD40 expressed on cells (human), sequence (P25942 21-277): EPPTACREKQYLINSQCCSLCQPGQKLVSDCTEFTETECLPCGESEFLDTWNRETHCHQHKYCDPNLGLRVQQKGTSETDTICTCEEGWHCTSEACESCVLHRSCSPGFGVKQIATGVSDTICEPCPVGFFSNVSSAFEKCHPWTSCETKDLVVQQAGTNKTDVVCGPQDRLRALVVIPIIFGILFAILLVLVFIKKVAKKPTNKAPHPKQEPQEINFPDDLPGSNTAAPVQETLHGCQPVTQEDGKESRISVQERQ

GFP positive rate for Jurkat/NF-kB-GFP+hCD40 single clones after CD40L stimulation (100 nM): 94.7%
Substance: CD40L (positive control, produced in 293F cells) (ligand)
